B1: EV046113 (antibody, human IgG1, kappa, V domains shown)
VH: QVQLVESGGGLVRPGGSLRLSCAASGFTFSDYFMTWIRQAPGKGLEWVSYINSIGSVIFYADSVEGRFTVSRDNTMKSLFLQMNSLTAEDTAVYYCARSCRISYGASGGFSCGMDVWGQGTPVTVSS
VL: DIQMTQSPSSLSASVGDRVTITCQASQSIRENINWYQQKTGKAPKLLIYDASILETGVPSRFSGSGSGTHFTFTISSLQPEDMATYYCQQYHHLITFGQGTRLDIKR
B2: EV046120 (antibody, human IgG1, lambda, V domains shown)
VH: EVQLVESGGGLVKPGGSLRLSCAASGFTFSSYSMNWVRQAPGKGLEWVSSISSSSSYIYYADSLKGRFTVSRDNAKKSLYLQMNSLRAEDTAVYYCARVDYGTNSEVGRFDPWGQGTLVTVSS
VL: QSVLTQPPSVSGTPGQRVTISCTGSSSNIGAGYAVHWYQQLPGTAPKLLIYDSINRPSGVPDRFSGSKSGTSASLAITGLQTEDEADYYCHSYDRSLSGSVFGGGTKLTVLG

Tests used:
[1] = target: T1, F protein of human metapneumovirus strain JPS02-76 (type B1), on infectious virus (human metapneumovirus, strain JPS02-76 …, UniProt Q6WB98 19-539); experiment: cell-based or functional assay
[2] = target: T2, F protein of human metapneumovirus strain JPS05-21 (type B2), on infectious virus (human metapneumovirus, strain JPS05-21 …); experiment: cell-based or functional assay
[3] = target: T3, F protein of human metapneumovirus strain JPS03-180 (type A1), on infectious virus (human metapneumovirus, strain JPS03-180 …); experiment: cell-based or functional assay
[4] = target: T2, F protein of human metapneumovirus …; experiment: cell-based or functional assay; remark: listed apart in the source
[5] = target: T3, F protein of human metapneumovirus …; experiment: cell-based or functional assay; remark: listed apart in the source
[6] = target: T4, F protein of human metapneumovirus strain JPS03-178 (type A2), on infectious virus (human metapneumovirus, strain JPS03-178 …); experiment: cell-based or functional assay
[7] = target: T1, F protein of human metapneumovirus …; experiment: cell-based or functional assay; remark: listed apart in the source
[8] = target: T2, F protein of human metapneumovirus …; experiment: cell-based or functional assay; remark: listed apart in the source
[9] = target: T3, F protein of human metapneumovirus …; experiment: cell-based or functional assay; remark: listed apart in the source
[10] = target: T4, F protein of human metapneumovirus …; experiment: cell-based or functional assay; remark: listed apart in the source
[11] = target: T1, F protein of human metapneumovirus …; experiment: cell-based or functional assay; remark: listed apart in the source
[12] = target: T2, F protein of human metapneumovirus …; experiment: cell-based or functional assay; remark: listed apart in the source
[13] = target: T3, F protein of human metapneumovirus …; experiment: cell-based or functional assay; remark: listed apart in the source
[14] = target: T4, F protein of human metapneumovirus …; experiment: cell-based or functional assay; remark: listed apart in the source
[15] = target: T1, F protein of human metapneumovirus …; experiment: cell-based or functional assay; remark: listed apart in the source
[16] = target: HA-V5-Full, hMPV (JPS02-76) FP with HA-Tag downstream of the signal peptide and linker and V5-Tag do (human metapneumovirus, strain JPS02-76 …); experiment: cell fluorescent immunostaining, fixed transfected CHO-K1 cells
[17] = target: FP-TM(-)-His, His-Tag-added hMPV (JPS02-76) FP lacking the transmembrane region (amino acid residues 491 to … (human metapneumovirus, strain JPS02-76 …, UniProt Q6WB98 19-490)); experiment: SPR, Biacore T-200; antibody captured by anti-human IgG, FP-TM(-)-His as analyte
[18] = target: T1, F protein of human metapneumovirus …; experiment: cell-based or functional assay; remark: listed apart in the source

Row | Binder | IC50, neutralizing activity (hMPV infection of LLC-MK2 cells) [2] [µg/mL] | IC50, neutralizing activity (hMPV infection of LLC-MK2 cells) [3] [µg/mL] | IC50, neutralizing activity (hMPV infection of LLC-MK2 cells; GraphPad Prism 6) [4] [µg/mL] | IC50, neutralizing activity (hMPV infection of LLC-MK2 cells; GraphPad Prism 6) [5] [µg/mL] | IC50, neutralizing activity (hMPV infection of LLC-MK2 cells; GraphPad Prism 6) [6] [µg/mL] | IC60, neutralizing activity (hMPV infection of LLC-MK2 cells; GraphPad Prism 6) [7] [µg/mL] | IC60, neutralizing activity (hMPV infection of LLC-MK2 cells; GraphPad Prism 6) [8] [µg/mL] | IC60, neutralizing activity (hMPV infection of LLC-MK2 cells; GraphPad Prism 6) [9] [µg/mL] | IC60, neutralizing activity (hMPV infection of LLC-MK2 cells; GraphPad Prism 6) [10] [µg/mL] | IC90, neutralizing activity (hMPV infection of LLC-MK2 cells; GraphPad Prism 6) [11] [µg/mL] | IC90, neutralizing activity (hMPV infection of LLC-MK2 cells; GraphPad Prism 6) [12] [µg/mL] | IC90, neutralizing activity (hMPV infection of LLC-MK2 cells; GraphPad Prism 6) [13] [µg/mL] | IC90, neutralizing activity (hMPV infection of LLC-MK2 cells; GraphPad Prism 6) [14] [µg/mL] | IC50, cell-to-cell spread inhibitory activity (LLC-MK2 cells stably expressing TMPRSS2) [15] [µg/mL] | IC90, cell-to-cell spread inhibitory activity (LLC-MK2 cells stably expressing TMPRSS2) [15] [µg/mL] | other results
1 | B1 | 0.39 | 0.38 | 0.491 | 0.418 | 0.645 | 0.819 | 0.652 | 0.522 | 0.76 | 1.48 | 2.29 | 1.39 | 1.56 | 0.108 | 0.707 | IC50, neutralizing activity (hMPV infection of LLC-MK2 cells) [1]: 0.68 µg/mL; binding result [16]: binds; Kd [17]: 0.265 nM; koff [17]: 0.000123 s⁻¹; kon [17]: 463000 M⁻¹ s⁻¹
2 | B2 | 0.24 | 0.32 | 0.249 | 0.3 | 0.0971 | 0.344 | 0.301 | 0.421 | 0.138 | 1.65 | 0.694 | 1.88 | 0.653 | 0.0132 | 0.0669 | IC50, neutralizing activity (hMPV infection of LLC-MK2 cells; GraphPad Prism 6) [18]: 0.241 µg/mL
